# Experimental data reported in US9371393B2, “Class I anti-CEA antibodies and uses thereof” (Immunomedics, Inc., priority 2009, dated 2016).
# Assays:
# [1] = tested on: MCA38 (CEACAM5−/CEACAM6−) adhesion to HUVEC; experiment: Endothelial cell adhesion assay, MCA38; type: cell-based, murine; details: 10 μg/mol Fab′
# Method: Percentage adhesion of various tumor cells with varying amounts of expressed CEACAM5 and CEACAM6 to HUVEC cells in the absence or presence of MN-15 Fab′, MN-3 Fab′, or Ag8 Fab′ control. Cells were labeled with 1 μCi/mL of ^3H-thymidine and added to HUVEC cultures and incubated for 30 minutes at 37° C. Samples were washed thrice with PBS to remove unattached cells. Attached tumor cells were solubilized with 0.1 N NaOH and radioactivity was measured in a B-scintillation counter. The cpm attached/total cpm added (attaching potential) was determined. Results of a typical study are presented. Cell lines used include BT-20 (CEACAM5+/CEACAM6+), MCF-7 (CEACAM5−/CEACAM6+), HT-29 (CEACAM5−/CEACAM6+), Moser (CEACAM5+/CEACAM6−), MCA38cea (CEACAM5+/CEACAM6−), and MCA38 (CEACAM5−/CEACAM6−).
# Endothelial cell adhesion assay—Human umbilical vein endothelial cells (HUVEC; Cambrex, San Diego, Calif.) were grown in collagen-coated dishes in EGM Media in a humidified atmosphere with 5% CO2 at 37° C. At passages 2 to 5, cells were plated at a density of 4×10^4 cells per well in 96-well plates 24 hours before the assay. Interleukin-1β (IL-1β, 1 ng/mol) was added 4 hours before the assay. […] Attached cells were solubilized with 0.1 N NaOH and radioactivity was measured in a β scintillation counter. The cpm attached/total cpm added (attaching potential) was determined.
# [2] = tested on: GW-39 human colonic carcinoma; experiment: GW-39 intrapulmonary micrometastasis model (GW-39iv), survival; type: in vivo, nude mice; details: cells pretreated with Fab′ 10 μg/mol, 100 μg i.v. 1 day after implantation; untreated 42 days
# Method: FIG. 7 illustrates an exemplary in vivo micrometastasis study. Top, immunohistochemistry of GW-39 tumor sections stained with a nonspecific antibody (left), MN-14 anti-CEACAM5 (middle), and MN-15 anti-CEACAM6 (right) and photographed at 100×. Bottom, survival of nude mice implanted with 30 μL of a 10% suspension of GW-39 human colonic cancer cells. Mice were implanted with cells that were […] for 30 minutes with MN-3-, MN-15-, or hMN-14-Fab′ (10 μg/mol). Mice also received a single 100 μg dose of the same Fab′ 1 day after cell implantation.
# In vivo therapy studies—Female athymic nude mice (6 to 8 weeks old) were purchased from TACONIC® (Germantown, N.Y.). Therapy studies were done using our CEACAM5+/CEACAM6+GW-39 intrapulmonary micrometastasis model, GW-39iv (Sharkey et al., J Natl Cancer Inst 1991, 83:627-32; Blumenthal et al., Cancer Res 1992, 52:6036-44). The GW-39 human colonic carcinoma has been maintained as a serially transplanted signet-ring cell cancer line since 1966 (Goldenberg et al., Transplantation 1966, 4:760-4). […] Body weight was monitored weekly and animal survival recorded. Results were analyzed by the Kaplan-Meier estimated survival curves, and significance was determined with the log-rank comparison of survival curves. Median survival time for each treatment group also was determined. […]
molecule,measurement,setting,value
"MN-15 Fab′: monovalent Fab′ fragment of murine MN-15 (antibody, V domains shown) VL: DIQLTQSPAIMSASPGEKVTMTCSASSRVSYIHWYQQKSGTSPKRWIYGTSTLASGVPARFSGSGSGTSYSLTISSMEAEDAATYYCQQWSYNPPTFGAGTKLELKR VH: EVRLVESGGGLVQGPGSLRLSCAASGFALTDYYMSWVRQSPGKTLEWLGFIANKANGHTTDYSPSVKGRFTISRDNSQTILYLQMNTLRTEDSATYYCARDMGIRWNFDVWGQGTTVTVSS",effect on tumor cell-endothelial cell adhesion,[1],neither MN-3 Fab′ targeting the N domain nor MN-15 Fab′ targeting the A1B1 domain of CEACAM6 had an effect
same,median survival time,[2],> 77 days
